Experimental data as given in US20220177587A1, “METHODS AND USES OF VARIANT CD80 FUSION PROTEINS AND RELATED CONSTRUCTS” (Alpine Immune Sciences, Inc., priority 2018, published 2022).
Read-outs that look alike come from different tables or passages of the source.

Experiments:
CD28 (human) [1] = biological target: CD28 (human) (UniProt P10747)
PD-L1 (human) [2] = biological target: PD-L1 (human) (UniProt Q9NZQ7)
Target sequence in this assay (Q9NZQ7 19-290): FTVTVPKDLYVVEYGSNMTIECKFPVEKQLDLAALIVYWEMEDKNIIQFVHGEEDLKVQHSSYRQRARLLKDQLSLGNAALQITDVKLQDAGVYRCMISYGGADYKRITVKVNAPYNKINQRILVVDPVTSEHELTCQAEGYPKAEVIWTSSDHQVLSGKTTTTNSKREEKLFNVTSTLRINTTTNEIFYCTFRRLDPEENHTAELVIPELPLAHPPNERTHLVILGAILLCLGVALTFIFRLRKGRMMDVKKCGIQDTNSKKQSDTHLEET

CD28 (human) [3] = biological target: CD28 (human) (UniProt P10747); test: flow cytometry, Jurkat cells (CD28)
human CTLA-4 (human) = human CTLA-4 (human) (UniProt P16410); test: flow cytometry, CHO cells stably expressing CTLA4
Chain of human CTLA-4 (human) (P16410 36-223): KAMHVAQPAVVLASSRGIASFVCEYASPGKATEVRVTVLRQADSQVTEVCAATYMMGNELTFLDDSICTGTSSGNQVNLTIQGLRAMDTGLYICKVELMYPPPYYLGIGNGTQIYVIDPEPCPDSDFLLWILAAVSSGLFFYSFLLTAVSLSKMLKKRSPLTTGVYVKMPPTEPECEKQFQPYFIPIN

PD-L1 (human) [4] = biological target: PD-L1 (human) (UniProt Q9NZQ7); test: flow cytometry, CHO cells stably expressing PD-L1
CD28 (human) [5] = biological target: CD28 (human) (UniProt P10747); test: flow cytometry, Jurkat cells (CD28); remark: listed apart in the source
PD-L1 (human) [6] = biological target: PD-L1 (human) (UniProt Q9NZQ7); test: flow cytometry, CHO cells expressing PD-L1
Target sequence in this assay (Q9NZQ7 19-290): as the sequence (Q9NZQ7 19-290) above

Substance | Jurkat/IL2 reporter RLU at 50 nM, K562/OKT3/PD-L1 aAPC (CD28 (human) [1]) [RLU] | Jurkat/IL2 reporter RLU at 50 nM, K562/OKT3/PD-L1 aAPC (PD-L1 (human) [2]) [RLU] | MFI at 33.3 nM (CD28 (human) [3]) [MFI] | MFI at 33.3 nM (human CTLA-4 (human)) [MFI] | MFI at 33.3 nM (PD-L1 (human) [4]) [MFI] | other results
CD80 E35D/M47V/T62A/A71G/V83A/Y87H/L97M IgV-Fc (inert) (Fc fusion) | 438 | 438 |  |  |  | 
CD80 Q33L/E35D/D46E/M47I IgV-Fc (inert) (Fc fusion) | 554 | 554 |  |  |  | 
variant CD80 IgV-Fc H18Y/A26E/E35D/V68M (Fc fusion) |  |  | 372 | 20900 | 17900 | 
variant CD80 IgV-Fc E35D/V68M/A71G/D90G (Fc fusion) |  |  | 2840 | 23300 | 28000 | 
CD80 T13R/E35D/M47L/V68M IgV-Fc (Fc fusion) |  |  |  |  |  | MFI at 33.3 nM (CD28 (human) [5]): 15.6 MFI; MFI at 33.3 nM (PD-L1 (human) [6]): 20000 MFI
variant CD80 IgV-Fc H18Y/E35D/M47L/V68M/D90G (Fc fusion) |  |  | 3390 |  | 27400 | 
CD80 E35D/D46E/M47L/V68M/A71G/Y87C/K93R IgV-Fc (Fc fusion) |  |  |  |  |  | MFI at 33.3 nM (PD-L1 (human) [6]): 24300 MFI
variant CD80 IgV-Fc E35D/M47L/V68M/A71G/D90G (Fc fusion) |  |  | 3070 | 26000 | 29400 | 
CD80 E35D/M47L/A71G/L97Q IgV-Fc (inert) (Fc fusion) | 2160 | 2160 |  |  |  | 
CD80 Y31S/E35D/M47L/T79L/E88G IgV-Fc (inert) (Fc fusion) | 496 | 496 |  |  |  | 
CD80 H18Y/Y31H/E35D/M47V/A71G/L85Q IgV-Fc (inert) (Fc fusion) | 455 | 455 |  |  |  | 
CD80 V22A/E35D/V68E/A71D IgV-Fc (inert) (Fc fusion) | 538 | 538 |  |  |  | 
CD80 ECD-Fc (Fc fusion) |  |  | 42.3 |  | 6380 | 
variant CD80 IgV-Fc H18Y/A26E/E35D/M47L/V68M/A71G (Fc fusion) |  |  | 526 | 25400 | 28500 | Fold change to WT CD80 (human CTLA-4 (human)): 18.7 fold; Fold change to WT CD80 (PD-L1 (human) [4]): 655 fold
variant CD80 IgV-Fc H18Y/E35D/M47L/A71G/D90G (Fc fusion) |  |  | 1270 | 23000 | 13300 | Fold change to WT CD80 (human CTLA-4 (human)): 16.9 fold; Fold change to WT CD80 (PD-L1 (human) [4]): 306 fold
CD80 A26E/E35D/M43T/M47L/L85Q/R94Q IgV-Fc (inert) (Fc fusion) | 526 | 526 |  |  |  | 

Substance | Jurkat/IL2 reporter RLU at 50 nM, K562/OKT3/PD-L1 aAPC (CD28 (human) [1]) [RLU] | Jurkat/IL2 reporter RLU at 50 nM, K562/OKT3/PD-L1 aAPC (PD-L1 (human) [2]) [RLU] | MFI at 33.3 nM (CD28 (human) [3]) [MFI] | MFI at 33.3 nM (human CTLA-4 (human)) [MFI] | MFI at 33.3 nM (PD-L1 (human) [4]) [MFI] | other results
CD80 Q33K/E35D/M47V/K89E/K93R IgV-Fc (inert) (Fc fusion) | 415 | 415 |  |  |  | 
variant CD80 IgV-Fc A26E/E35D/M47L/A71G/D90G (Fc fusion) |  |  | 1270 | 22100 | 14600 | 
variant CD80 IgV-Fc E35D/M47L/V68M/A71G (Fc fusion) |  |  | 806 | 24700 | 27900 | Fold change to WT CD80 (human CTLA-4 (human)): 18.1 fold; Fold change to WT CD80 (PD-L1 (human) [4]): 639 fold
variant CD80 IgV-Fc H18Y/A26E/E35D/M47L/A71G/D90G (Fc fusion) |  |  |  |  | 16900 | 
variant CD80 IgV-Fc H18Y/M47L/V68M/A71G (Fc fusion) |  |  | 1190 |  | 28500 | 
variant CD80 IgV-Fc A26E/M47L/V68M/A71G/D90G (Fc fusion) |  |  | 2790 | 21800 | 28100 | 
variant CD80 IgV-Fc A26E/M47L/V68M/A71G (Fc fusion) |  |  | 98.7 | 3230 | 1670 | 
CD80 V22D/E24D/E35D/M47L/V68M IgV-Fc (Fc fusion) |  |  |  |  |  | MFI at 33.3 nM (CD28 (human) [5]): 1250 MFI; MFI at 33.3 nM (PD-L1 (human) [6]): 15400 MFI
variant CD80 IgV-Fc A26E/E35D/M47L/V68M/D90G (Fc fusion) |  |  |  | 26700 | 25000 | 
CD80 IgV-Fc A26E/Q27R/E35D/M47L/N48Y/L85Q (Fc fusion) |  |  |  |  |  | MFI at 33.3 nM (CD28 (human) [5]): 78 MFI
CD80 V22D/E24D/E35D/M47L/V68M/L85M/D90G IgV-Fc (Fc fusion) |  |  |  |  |  | MFI at 33.3 nM (CD28 (human) [5]): 1180 MFI; MFI at 33.3 nM (PD-L1 (human) [6]): 19000 MFI
variant CD80 IgV-Fc H18Y/M47L/A71G/D90G (Fc fusion) |  |  | 1600 | 18200 | 10800 | 
CD80 E35D/M47I/V68M/Y87N IgV-Fc (Fc fusion) |  |  |  |  |  | MFI at 33.3 nM (PD-L1 (human) [6]): 13100 MFI
variant CD80 IgV-Fc H18Y/M47L/V68M/A71G/D90G (Fc fusion) |  |  |  | 22200 | 29500 | 
CD80 E35D/D46E/M47L/V68M/T79M/L85M IgV-Fc (Fc fusion) |  |  |  |  |  | MFI at 33.3 nM (CD28 (human) [5]): 403 MFI; MFI at 33.3 nM (PD-L1 (human) [6]): 8640 MFI

Continued, in another order:

Jurkat/IL2 reporter RLU at 50 nM, K562/OKT3/PD-L1 aAPC (CD28 (human) [1]) [RLU] | Jurkat/IL2 reporter RLU at 50 nM, K562/OKT3/PD-L1 aAPC (PD-L1 (human) [2]) [RLU] | MFI at 33.3 nM (CD28 (human) [3]) [MFI] | MFI at 33.3 nM (human CTLA-4 (human)) [MFI] | MFI at 33.3 nM (PD-L1 (human) [4]) [MFI] | Substance | other results
468 | 468 |  |  |  | CD80 S15P/Q33L/E35D/M47L/L85Q IgV-Fc (inert) (Fc fusion) | 
576 | 576 |  |  |  | CD80 E35D/M47V/A71G/L85M/L97Q IgV-Fc (inert) (Fc fusion) | 
533 | 533 |  |  |  | CD80 Q33L/E35D/T41S/M43I IgV-Fc (inert) (Fc fusion) | 
432 | 432 |  |  |  | CD80 Q33L/E35D/M47I/L85Q IgV-Fc (inert) (Fc fusion) | 
394 | 394 |  |  |  | CD80 Q33L/E35D/M47L/A71G/F92S IgV-Fc (inert) (Fc fusion) | 
553 | 553 |  |  |  | CD80 Q33L/E35D/M43I/L85Q/R94W IgV-Fc (inert) (Fc fusion) | 
 |  | 2000 | 19900 |  | variant CD80 IgV-Fc H18Y/A26E/A71G/D90G (Fc fusion) | 
 |  | 2720 | 24300 | 30100 | variant CD80 IgV-Fc H18Y/E35D/V68M/A71G/D90G (Fc fusion) | 
 |  | 417 | 24600 | 27800 | variant CD80 IgV-Fc A26E/E35D/M47L/V68M/A71G (Fc fusion) | Fold change to WT CD80 (human CTLA-4 (human)): 18.1 fold; Fold change to WT CD80 (PD-L1 (human) [4]): 638 fold
 |  | 2560 | 121 | 31700 | variant CD80 IgV-Fc H18Y/A26E/M47L/V68M/A71G/D90G (Fc fusion) | Fold change to WT CD80 (CD28 (human) [3]): 58.2 fold; Fold change to WT CD80 (PD-L1 (human) [4]): 727 fold
 |  | 135 |  | 12600 | variant CD80 IgV-Fc A26E/E35D/V68M/A71G (Fc fusion) | 
 |  |  | 22400 | 11900 | variant CD80 IgV-Fc H18Y/E35D/M47L/A71G (Fc fusion) | 
 |  |  |  | 10000 | variant CD80 IgV-Fc H18Y/A26E/E35D/D90G (Fc fusion) | 
 |  | 2580 | 21900 | 10600 | variant CD80 IgV-Fc A26E/M47L/V68M/D90G (Fc fusion) | 
